Measurements taken from article PMC8834707, “Probing the Dynamics of Streptococcus pyogenes Cas9 Endonuclease Bound to the sgRNA Complex Using Hydrogen-Deuterium Exchange Mass Spectrometry”.

Target: Cas9 (SpCas9) (Streptococcus pyogenes, UniProt Q99ZW2 1-1368)
Assay: HDX-MS; protein:RNA 1:10 molar ratio; sgRNA without DNA; 9 peptides with reduced and 21 with increased deuterium uptake on binding; HDX buffer, pH and temperature not given in the material (section 3.4 text absent); complex at 1:10 Cas9:sgRNA formed immediately before exchange, D2O incubation 1-480 min
Settings: protein: recombinant; tags: His-tag removed with TEV protease; single-strand sgRNA with repeat-antirepeat and stem-loops

Chain of Cas9 (SpCas9) (Q99ZW2 whole entry): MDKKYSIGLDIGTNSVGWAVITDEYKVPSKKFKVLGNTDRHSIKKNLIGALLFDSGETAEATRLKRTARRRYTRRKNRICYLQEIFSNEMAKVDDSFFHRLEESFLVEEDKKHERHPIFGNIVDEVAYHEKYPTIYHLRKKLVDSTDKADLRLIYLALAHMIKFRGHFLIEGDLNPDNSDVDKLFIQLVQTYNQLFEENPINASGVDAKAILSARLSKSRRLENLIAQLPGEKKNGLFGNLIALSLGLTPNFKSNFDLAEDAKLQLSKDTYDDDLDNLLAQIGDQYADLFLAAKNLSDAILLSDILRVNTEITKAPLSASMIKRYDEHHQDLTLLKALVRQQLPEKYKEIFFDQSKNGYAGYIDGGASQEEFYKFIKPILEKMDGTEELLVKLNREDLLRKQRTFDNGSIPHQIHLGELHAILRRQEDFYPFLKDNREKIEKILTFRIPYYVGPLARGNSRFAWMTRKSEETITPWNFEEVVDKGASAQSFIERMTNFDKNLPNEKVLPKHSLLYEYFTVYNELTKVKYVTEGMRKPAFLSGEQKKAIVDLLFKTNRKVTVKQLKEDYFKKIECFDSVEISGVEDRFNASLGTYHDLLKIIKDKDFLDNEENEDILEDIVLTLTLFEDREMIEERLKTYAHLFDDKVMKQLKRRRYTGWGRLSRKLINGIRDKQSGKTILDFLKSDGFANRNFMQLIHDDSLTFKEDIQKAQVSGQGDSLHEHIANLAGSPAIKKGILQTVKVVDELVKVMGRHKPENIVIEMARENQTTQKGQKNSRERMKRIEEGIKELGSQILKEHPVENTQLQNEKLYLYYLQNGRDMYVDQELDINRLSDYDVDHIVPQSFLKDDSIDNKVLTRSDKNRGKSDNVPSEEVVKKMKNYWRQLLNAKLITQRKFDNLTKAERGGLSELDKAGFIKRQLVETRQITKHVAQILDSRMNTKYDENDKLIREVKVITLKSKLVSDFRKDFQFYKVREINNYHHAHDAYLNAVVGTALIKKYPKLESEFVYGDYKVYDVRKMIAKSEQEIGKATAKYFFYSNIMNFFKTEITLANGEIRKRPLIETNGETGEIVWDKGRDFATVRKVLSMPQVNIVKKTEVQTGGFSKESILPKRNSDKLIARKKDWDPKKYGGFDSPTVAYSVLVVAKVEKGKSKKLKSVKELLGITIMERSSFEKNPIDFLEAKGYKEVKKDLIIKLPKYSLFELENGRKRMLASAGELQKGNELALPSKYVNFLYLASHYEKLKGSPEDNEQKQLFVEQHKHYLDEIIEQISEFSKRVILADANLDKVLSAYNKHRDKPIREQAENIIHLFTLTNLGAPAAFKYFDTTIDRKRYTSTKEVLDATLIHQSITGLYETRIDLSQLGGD

B1: sgRNA (103 nt) (structured_RNA)
RNA: GGUUGGACAUGCUCGACAUUCGUUUUAGAGCUAGAAAUAGCAAGUUAAAAUAAGGCUAGUCCGUUAUCAACUUGAAAAAGUGGCACCGAGUCGGUGCUUUUUU
  binding result: binds
